Five molecules from paper PMC3236778 can be followed below.

For test [1], the target named is GkDnaC K309A mutant (Geobacillus kaustophilus HTA426). As to the kind of experiment: SEC; size-exclusion column during purification; data not shown.
In test [2] the target is GkDnaC R420A mutant (arginine finger) (Geobacillus kaustophilus HTA426). The description is as above.
For test [3], the target named is GkDnaC helicase, wild-type (replicative helicase of Geobacillus kaustophilus HTA426) (Geobacillus kaustophilus HTA426). Described as above.
For test [4] the target is unchanged.

As to GkDnaC K309A mutant (enzyme), the stoichiometry N in test [1] is 6.
On to “GkDnaC R420A mutant (arginine finger) (enzyme)”, for which the stoichiometry N in test [2] was 6.
Consider “GkDnaC helicase, wild-type (replicative helicase of Geobacillus kaustophilus HTA426) (enzyme)”, for which the stoichiometry N in test [3] worked out at 6.
On to “GkDnaI helicase loader (natural protein)”, for which, in test [4], the ATPase activity of the GkDnaC-GkDnaI complex (NADH-coupled assay) is 18.1 µM/min and the unwinding efficiency (fold, against GkDnaC alone), gel shift assay of fork DNA unwinding was 0.15 fold.

B1: GkDnaG primase, full-length wild-type (enzyme)
chain: MGHRIPEETIEAIRRGVDIVDVIGEYVQLKKQGRNYFGLCPFHGEKTPSFSVSPEKQIFHCFGCGAGGNAFTFLMDIEGIPFVEAAKRLAAKAGIDLSAYELDSRGSDGSRADEAKAMVEAHTLLKRFYHHLLVHTKEGQAALDYLQVRGWTKETIDRFEIGYAPDVPDAAVRLLESRSFPLVLMEKAGLLVKKEDGRYVDRFRNRIMFPIHDHRGETVGFSGRLLGDGQPKYMNSPETPIFRKGTLLYFFHEARVSIRKRQEALLVEGFADVISAVQAGVDYVVATMGTSLTEEQARILRRHAETVTICYDGDSAGTEAAWRAAEQLSAFGCRVKVALLPDGLDPDEYIRTCGADRFAEEIAAARPLMAFKMDRLRRGKNLQEEGDRLRYIEEALREISKLSSPVEKDYYMRQLADEFSLSLSALYEQLSRSKPEQPKPQVNDGGKPVRPALTKKLLPAFQNAERLLLAHMMRSRDVAFIVQEQVGGRFNIEEHRALAAYIYAFYEEGHEADPSALMSRLPGELRTLASELSLLLVADDVSDRELADCIRHVLNHPKWLMLKEKEQEKTEAERRKDFLTAARIAKEMIEMKKMLSSS
For B1, in test [4], the ATPase activity of the GkDnaC-GkDnaG complex (NADH-coupled assay) turned out to be 79.5 µM/min; the unwinding efficiency (fold, against GkDnaC alone), gel shift assay of fork DNA unwinding was 1.45 fold; the unwinding velocity of the GkDnaC-GkDnaG complex (smTPM) was 7.44 bp/s.
